PMC11325161

Biological target: SARS-CoV-2 nsp12 wild type (SARS-CoV-2) (UniProt P0DTD1)
Assay: MST
Details: complex

Question: For “subcomplex of wt nsp7, wt nsp8 and dsRNA (1:2:1) (from UniProt P0DTD1)”, which EC50 is on record?
Answer: The EC50 was 12.6 nM.
